We go through one protein from PMC3587310 (Biochemistry, 2013).

This data set deals with the molecule itself. Briefly: crystal structure.

B1: S. elongatus KaiC A422V mutant protein (natural protein, Synechococcus elongatus, UniProt Q79PF4 1-519, looked up)
chain: MTSAEMTSPNNNSEHQAIAKMRTMIEGFDDISHGGLPIGRSTLVSGTSGTGKTLFSIQFLYNGIIEFDEPGVFVTFEETPQDIIKNARSFGWDLAKLVDEGKLFILDASPDPEGQEVVGGFDLSALIERINYAIQKYRARRVSIDSVTSVFQQYDASSVVRRELFRLVARLKQIGATTVMTTERIEEYGPIARYGVEEFVSDNVVILRNVLEGERRRRTLEILKLRGTSHMKGEYPFTITDHGINIFPLGAMRLTQRSSNVRVSSGVVRLDEMCGGGFFKDSIILATGATGTGKTLLVSRFVENACANKERAILFAYEESRAQLLRNAYSWGMDFEEMERQNLLKIVCAYPESAGLEDHLQIIKSEINDFKPARIAIDSLSALARGVSNNAFRQFVIGVTGYAKQEEITGLFTNTSDQFMGVHSITDSHISTITDTIILLQYVEIRGEMSRAINVFKMRGSWHDKAIREFMISDKGPDIKDSFRNFERIISGSPTRITVDEKSELSRIVRGVQEKGPES
modifications: phosphothreonine at T432 in all six subunits; S431 not phosphorylated
For B1, the “stoichiometry N” value came out at 6.
